Measurements reported in patent US20190389956A1 (INSTITUTE OF BIOPHYSICS CHINESE ACADEMY OF SCIENCES, published 2019).
One block for each binder: values may come before it.

Assays:
[1] = molecular target: T1, human IFNAR1 truncation lacking extracellular SD1, fused with GFP, expressed on HEK293T cells (human, UniProt P17181 28-457); test: flow cytometry on transfected HEK293T cells, PE anti-mouse IgG
T1 construct: domain: extracellular and transmembrane domains lacking SD1 (32-126); Made from pEGFP-humanIFNAR1EC by overlap PCR; transiently expressed on HEK293T cells; also called R1-Δ1; RI-Δ1; not shown: C-terminal GFP (with linker) from the pEGFP vector
T1 sequence (looked up): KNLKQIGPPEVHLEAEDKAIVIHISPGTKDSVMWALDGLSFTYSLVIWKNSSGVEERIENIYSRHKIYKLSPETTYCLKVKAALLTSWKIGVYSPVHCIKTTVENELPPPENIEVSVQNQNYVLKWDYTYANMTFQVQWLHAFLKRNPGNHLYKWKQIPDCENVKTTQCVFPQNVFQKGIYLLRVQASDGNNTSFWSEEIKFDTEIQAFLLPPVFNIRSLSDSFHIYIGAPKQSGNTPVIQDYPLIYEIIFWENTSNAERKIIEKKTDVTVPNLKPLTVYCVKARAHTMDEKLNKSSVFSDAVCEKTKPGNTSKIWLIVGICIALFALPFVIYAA

[2] = molecular target: T2, human IFNAR1 extracellular and transmembrane domains fused with GFP, expressed on HEK293T cells … (human, UniProt P17181 28-457); test: flow cytometry screening on HEK293T cells expressing human IFNAR1 extracellular domain-GFP
T2 construct: domain: extracellular domains and transmembrane domains; the intracellular domain is replaced by GFP; also called R1-WT; HEK293T cells stably expressing IFNAR1; not shown: C-terminal GFP (with linker) from the pEGFP vector
T2 sequence (looked up): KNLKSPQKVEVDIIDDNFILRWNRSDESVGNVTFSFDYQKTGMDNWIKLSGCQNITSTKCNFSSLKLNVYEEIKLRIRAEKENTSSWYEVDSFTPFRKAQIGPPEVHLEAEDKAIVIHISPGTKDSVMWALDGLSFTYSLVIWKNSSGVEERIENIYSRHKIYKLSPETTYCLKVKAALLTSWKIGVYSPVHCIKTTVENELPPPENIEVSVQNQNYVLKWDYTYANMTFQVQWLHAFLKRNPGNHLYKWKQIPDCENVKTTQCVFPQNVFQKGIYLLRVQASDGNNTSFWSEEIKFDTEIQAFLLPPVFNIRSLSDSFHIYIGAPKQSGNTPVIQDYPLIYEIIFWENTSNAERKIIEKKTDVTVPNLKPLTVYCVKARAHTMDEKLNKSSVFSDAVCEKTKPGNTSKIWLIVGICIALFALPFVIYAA
Source text: Hybridoma secreting IFNAR1 antibody can be screened by analyzing GFP and PE signals of cells by flow cytometry. Monoclonal IgG antibodies of each well were screened by a reporter cell line stably expressing the extracellular domain of IFNAR1. Once extensive hybridoma growth occurs, hybridoma cells are usually screened after 10-14 days. Hybridoma cells secreting IFNAR1 antibody are subcloned by limited dilution method and were screened again. If still positive for human IFNAR1, then the monoclonal antibody is subcloned at least twice by limited dilution. Then the stable subclones are cultured in vitro, and a small amount of antibodies are produced in tissue culture medium for characterization.
The day before screening, 100 μL supernatant was aspirated from 96-well cell culture plate into a 96-well U bottom plate. 100 μL fresh 1×HAT RPMI medium was added to the original well for continued culture. HEK293T cells stably expressing IFNAR1 were harvested and were subsequently added to a 96-well U-bottom plate at a density of 10,000 cells/200 μL/well. After centrifugation at 2200 rpm for 3 min, the supernatant was discarded and the cell pellet was collected and re-suspended with 100 μL hybridoma supernatant at 4° C. for 30 min. […] Finally, the re-suspended cells were analyzed using a flow cytometer Guava (Millipore) for cellular GFP and PE signal. […]

binding result [2]: binds
B1: mouse anti-human IFNAR1 monoclonal antibody 10C9 (antibody, V domains shown)
VH: QIQLVQSGPELKKPGETVKISCKASGYTFTNYGVNWMKQAPGKGLKWMGWINTYTGEPTYADDFKGRFAFSLETSASTAYLQINNLKNEDTATYFCAREGVYYYGDWAWLAYWGQGTLVTVSA
VL: DIVMTQSQKFISTSVGDRVSVTCKASQNVGTNVAWYQQKPGQSPKTLIYSTSYRYNGVPDRFTGSGSGTDFTLTISNVQSEDLAEYFCQQYNSYYTFGGGTKLEIK
notes: Mouse monoclonal IgG from a hybridoma, detected with anti-mouse IgG; also called antibody secreted by hybridoma cell line 10C9 (CGMCC No. 12543)
binding result [1]: no binding (tested: 5 µg/ml (methods of Example 2))

binding result [2]: binds
B2: mouse anti-human IFNAR1 monoclonal antibody 10C2 (antibody, V domains shown)
VH: QIQLVQSGPELKKPGETVKISCKASGYTFTNYGMNWVKQAPGKGLKWMGWINTYTGEPTYSDDFKGRFAFSLETSASTANLQINNLKDEDAATYFCAREGAIYYGDYVYFGVWGAGTTVTVSS
VL: DIVMTQSQKFMSTSVGDRVSITCKASQNVGTAVAWYQEKPGQSPKLLIYSASNRYTGVPDRFTGSGSGTAFTLTISNMQSEDLADYFCQQYYNYPLTFGAGTKLEVKR
notes: Mouse monoclonal IgG from a hybridoma, detected with anti-mouse IgG; also called antibody secreted by hybridoma cell line 10C2 (CGMCC No. 12542)
binding result [1]: no binding (tested: 5 µg/ml (methods of Example 2))
